# Results from patent US8691536B2, “Pectin lyase, pectin lyase polynucleotide, enzyme preparation, and method for producing single cells of plant tissue” (Bio-I Co., Ltd., priority 2009, dated 2014).
# B1: pectin lyase of the present invention: Pectin lyase with maceration activity purified from Aspergillus niger NBRC31125; SEQ ID NO: 2; PLA mutant differing in 9 amino acids from N400 PLA (protein, listed as Aspergillus sp.)
# chain: VGVSGSAEGFAEGVTGGGSATPVYPDTIDELVSYLGDDEARVIVLTKTFDFTDSEGTTTGTGCAPWGTASACQVAIDQDDWCENYEPDAPSVSVEYYNAGTLGITVTSNKSLIGEGSSGAIKGKGLRIVSGAENIIIQNIAVTDINAKYVWGGDAITLDDCDLVWIDHVTTARIGRQHYVLGTSADNRVSLTNNYIDGVSDYSATCDGYHYWAIYLDGDADLVTMKGNYIYHTSGRSPKVQDNTLLHAVNNYWYDISGHAFEIGEGGYVLAEGNVFQNVDTVLETYEGEAFTVPSTTAGEVCSTYLGRDCVINGFGSSGTFSEDSTSFLSDFEGKNIASASAYTSVASSVVANAGQGNL
# Experiments:
# [1] = Pectin lyase activity (absorbance at 235 nm, acetate buffer); assay type: biochemical
# Protocol: An example of a method for measuring pectin lyase activity is to measure over time the absorbance of the maximum absorption wavelength at 235 nm by unsaturated polygalacturonid formed as a result the substrate being degraded by enzymatic action. In the alternative, other publicly-known methods may be used.
# First, 50 μL of a solution of 2 wt. % of pectin (SIGMA/P9436, derived from citrus fruit) adjusted to pH 4.5 using NaOH or HCl, and 50 μL of enzyme solution were prepared. The 50 μL of wt. 2% pectin solution was mixed with 400 μL of 50 mM acetate buffer (pH 4.5) to prepare in advance a total of 450 μL, to which 50 μL of enzyme solution is to be added for a total of 500 μL as an enzymatic reaction solution to be used when measuring activity. In order to ensure uniform diffusion of the substrate in the reaction solution and to achieve stabilization, NaCl is added to obtain a final concentration of 0.1 M.
# The enzyme solution and the enzymatic reaction solution without the enzyme solution are each incubated for 10 minutes at 25° C., after which 50 μL of the enzyme solution is mixed with 450 μL of the enzymatic reaction solution without the enzyme solution. An enzymatic reaction is then initiated, and measurements of absorbance at 235 nm are taken continuously for 10 minutes at 25° C. using a spectrometer. The amount of resulting unsaturated polygalacturonid is computed using a molecular absorbance coefficient of 5200 (M^−1cm^−1) (Paloma Sanchez-Torres, Jeap Visser, and Jacques A. E. Benen, Biochem. J., 370, 331-337, Feb. 15, 2003), and 1 unit (1 U) of pectin lyase activity was set at the amount of unsaturated polygalacturonid formed per 1 μmmol of unsaturated digalacturonid per minute.
# In order to determine the optimal pH for pectin lyase activity of pectin lyase having maceration activity produced from the strain Aspergillus niger NBRC31125, the enzyme activity at various pH levels was measured using the above-described enzymatic reaction solution with modified pH (the enzymatic reaction solution described in [C] 2. (1) above).
# (§1) It should be noted that a 20 mM phosphate buffer was used for the pH 6.0-7.5 enzymatic reaction solution, and a 50 mM Tris-HCl buffer was used for the pH 7.5-9.5 enzymatic reaction solution. In cases where a McIlvaine buffer was used in a pH range of 3-6, the pectin lyase activity was measured in the same manner. Moreover, in order to determine the pH stability, the pH of enzyme solutions containing purified enzymes was adjusted to 3.0, 4.0, 5.0, 6.0, 7.0, 8.0, 9.0 and 10.0, using either HCl or NaOH. After allowing these enzyme solutions to stand for 24 hours at 4° C., the pectin lyase activity was measured at 25° C. using a 50 mM acetate buffer (pH 4.5).
# [2] = Pectin lyase activity with HM pectin in McIlvaine buffer; assay type: biochemical
# Protocol: In order to determine the kM value of the isolated and purified pectin lyase having maceration activity (SIGMA/P9561, derived from citrus fruit, degree of esterification <90%), a McIlvaine buffer (0.1 M citric acid, 0.2 M phosphoric acid) adjusted to pH 4.8 was used in measuring the enzyme activity when the final concentration of pectin was changed.
# In addition, under conditions of 30° C., and within a pH range of 3.0-7.0, a McIlvaine buffer was used to measure the pectin lyase activity when the ionic strength of the various buffers was adjusted to 0.5 using KCl.
# The pectin lyase activity was measured as described below. First, a McIlvaine buffer was used in the enzymatic reaction solution, and an HM pectin substrate (SIGMA/P9561, derived from citrus fruit, degree of esterification <90%) was used to obtain a final concentration of 3 mg/mL. The ionic strength of the enzymatic reaction solution was adjusted in advance to I=0.3 or 0.5, using KCl, and the enzyme solution was 50 μL, and the total amount of the enzymatic reaction solution was 500 μL. Measurements were carried out in the same manner as in [C] 2. (2) (Paloma Sanchez-Tones, Jaap Visser, and Jacques A. E. Benen, Biochem. J., 370, 331-337, Feb. 15, 2003), except that the temperature was 30° C.
# sweet potato discs [3] = experiment: Maceration activity, sweet potato disc decay at 30° C.; assay type: biochemical
# Source text: Maceration activity can be measured, for example, by immersing a sweet potato disc in the enzyme solution, and measuring the time elapsed until the sweet potato disc uniformly decays in the enzyme solution as a result of insoluble pectin being degraded by enzymatic action. In the alternative, other publicly-known methods may be used.
# A column 6 mm in diameter is removed from the center of a sweet potato using a cork borer. After using a knife to cut sweet potato discs about 0.3 mm thick, the discs are immersed for 60 seconds in 70% ethanol and then rinsed with distilled water. Into a test tube are placed 300 μL of enzyme solution with pH adjusted to 3.5 using HCl, and 200 μL of 50 mM acetate buffer (pH 3.5), and after these are mixed, a constant temperature is set at 30° C., and 3 of the above sweet potato discs are placed therein, and a reaction is initiated. Every 15 minutes after the reaction starts, agitation is carried out for 10 seconds using a test tube mixer, and the degree of decay is visually observed. The strength of the maceration activity is expressed by the reciprocal of the time needed for 2 of the 3 sweet potato discs to almost uniformly decay (Reference literature: Toshihiko Suganuma, Tetsuro Fukumoto, Youko Ikemizu, Katsuyuki Nakama, Shigeo Fujimoto, and Tomonori Nagahama, Bulletin of the Faculty of Agriculture, Kagoshima University, 37, 89-98, Mar. 16, 1987).
# A column 6 mm in diameter was removed from the center of a sweet potato (about 500 g) using a cork borer. After using a knife to cut sweet potato discs about 0.3 mm thick, the discs were immersed for 60 seconds in 70% ethanol and then rinsed with distilled water. Into a test tube were placed 300 μL of purified enzyme solution (1.30 μg/mL) and 200 μL of a buffer, and after these were mixed, a constant temperature was set at 30° C., and 3 of the above sweet potato discs were placed therein, and a reaction was initiated.
# The buffers were 50 mM acetate buffers with pH 3.0, 3.5, 4.0, 4.5, 5.0, and 6.0, a 50 mM HEPES buffer with pH 7.0, and 50 mM Tris-HCl buffers with pH 8.0 and 9.0. After starting the reaction, stirring was carried out for 10 seconds with a test tube mixer every 15 minutes, and the degree of decay was visually observed. The strength of the maceration activity was expressed by the reciprocal of the time needed for 2 of the 3 sweet potato discs to almost uniformly decay.
# In order to evaluate the strength of the maceration activity of the pectin lyase of the present invention, in a Comparative Example, two commercially available enzyme preparations, Macerozyme R10 and Pectolyase Y-23 were dissolved in purified water so that the amount of protein in the respective enzyme solutions was 1.30 μg/ml, and these were subjected to the test described above.
# sweet potato discs [4] = experiment: Maceration activity, sweet potato disc decay at 45° C. in McIlvaine buffer; assay type: biochemical; conditions: for specific maceration activity relative to N400 strain PLA: per 1 mg of protein, at optimal pH
# Protocol: The maceration activity was measured as described below. First, sweet potato discs were prepared in the same manner as described above. Then, 50 μL of enzyme solution and 450 μL of buffer were placed in a test tube and mixed, forming a test solution held at a constant temperature of 45° C., then 1 of the above sweet potato discs were placed therein, and a reaction was initiated. A McIlvaine buffer was used as the buffer, and the ionic strength of the test solution (total of 500 μL) was adjusted in advance to I=0.3 or 0.5, using KCl. After the reaction started, stirring was carried out in the manner described above, and the degree of decay was visually observed. Three specimens each were prepared under the various conditions, and reactions of specimens under identical conditions were initiated simultaneously. The strength of the maceration activity under those conditions was expressed by the reciprocal of the time needed for any 2 of the sweet potato discs of the 3 specimens under identical conditions (total of 3) to almost uniformly decay.
# [5] = pH stability of pectin lyase; assay type: physicochemical; conditions: 24 hours at 4° C., activity then measured at pH 4.5, 25° C.
# Protocol: as §1
# The pH stability was evaluated using the formula (activity after standing/activity before standing)×100. As a result, the specific activity and the pH stability of pectin lyase at various pH levels are represented in the graph in FIG. 1, where 1.0 is pectin lyase at pH 4.5. The optimal pH for pectin lyase activity according to the present invention was 4.5 in the acetate buffer, and 4.8 in the McIlvaine buffer, and was thus found to be stable in a pH range of 3-6.
# [6] = Test to determine the maximum temperature of pectin lyase / heat deactivation; assay type: physicochemical; conditions: 15 minutes at 121° C.
# [7] = Effects of metallic ions on pectin lyase activity; assay type: biochemical; conditions: Ca^2+ 1 mM, acetate buffer pH 4.5, 25° C.
# Protocol: Tests were conducted on the effects of metallic ions (Ca^2+, Ba^2+, Co^2+, Cu^2+, Mg^2+, Mn^2+, Zn^2+, and Fe^2+) of pectin lyase having maceration activity produced from the strain Aspergillus niger NBRC31125 on pectin lyase activity.
# The test method involved the use of chlorides of various metals, and adjusting their final concentration in the enzymatic reaction solution to 1 mM, and calculating the percentage of change in activity depending on the presence or absence of metallic ions. The enzymatic reaction solution used a 50 mM acetate buffer and a pH of 4.5, and measurements were taken at 10-minute intervals at 25° C.
# [8] = McIlvaine buffer pH 4.8, Lineweaver-Burk plot
# [9] = McIlvaine buffer, I=0.3, 45° C.
molecule,measurement,setting,value
B1,pectin lyase activity,"[1]; 50 mM acetate buffer pH 4.5, 25° C.",54.7 U/mg
same,optimal pH for pectin lyase activity,[1]; McIlvaine buffer,4.8
same,optimal pH for pectin lyase activity,[1]; acetate buffer,4.5
same,pectin lyase activity relative to crude enzyme solution,[1]; purified vs crude enzyme solution,61 times
same,optimal pH for pectin lyase activity,"[2]; 30° C., McIlvaine buffer pH 3.0-7.0, ionic strength 0.5 with KCl (FIG. 2)",4.8
same,specific pectin lyase activity,"[2]; 30° C., McIlvaine buffer, I=0.5, at optimal pH",102 U/mg
same,Km value,[2]; [8],5.4 mg/mL
same,Vmax value,[2]; [8],140 U/mg
same,optimal pH of pectin lyase activity,"[2]; McIlvaine buffer, I=0.3, 30° C.",4.0
same,optimal pH of pectin lyase activity,"[2]; McIlvaine buffer, I=0.5, 30° C.",5.0
same,optimal pH for maceration activity,"sweet potato discs [3]; 30° C., enzyme solution 1.30 μg/mL protein, buffers pH 3.0-9.0",~3.5
same,maceration activity per 390 ng of protein,"sweet potato discs [3]; at optimal pH, 30° C.",0.15 h⁻¹
same,specific maceration activity at pH 3.0 relative to Macerozyme R10,sweet potato discs [3]; pH 3.0,27.7 times
same,specific maceration activity at pH 3.0 relative to Pectolyase Y-23,sweet potato discs [3]; pH 3.0,15.6 times
same,maceration activity of enzyme solution used for pectin lysate,"sweet potato discs [3]; pH 3.0, 0.5 mL enzyme solution (500 ng purified pectin lyase; 2% Macerozyme A; 0.16% Pectolyase Y-23)",0.18 h⁻¹
same,maceration activity,sweet potato discs [3]; pH 5.0 or lower,maceration activity was observed
same,decay of sweet potato discs,"sweet potato discs [3]; pH 6.0, 7.0, 8.0, and 9.0",no decay occurred at all
same,optimal pH of maceration activity,sweet potato discs [4]; [9],4.0
same,specific maceration activity per 1 mg,sweet potato discs [4]; [9],7400 h⁻¹ mg⁻¹
same,optimal pH of maceration activity,"sweet potato discs [4]; McIlvaine buffer, I=0.5, 45° C.",5.0
same,ratio of the maceration activity to the pectin lyase activity,sweet potato discs [4]; maceration activity/pectin lyase activity of 1 mg of enzyme,72.5
same,specific maceration activity relative to N400 strain PLA,sweet potato discs [4],about 3 times
same,specific maceration activity relative to N400 strain PLA,sweet potato discs [4]; listed as protein of the present invention,3 times
same,specific maceration activity relative to N400 strain PLA,sweet potato discs [4]; listed as this pectin lyase,about 3 times
same,pH range in which stable,[5],3-6
same,deactivation by boiling treatment,[6],completely deactivated
same,Activity (%) vs. non-addition of ions,[7],120%
